Experimental data reported in publication PMC1450329.
Where a chain is given by its changes, count along the chain named. Where two headings read alike, the source gives them in different places.

How the values were obtained:
Test in all cases: fluorescence anisotropy
MutS-E38A = target: T1, MutS-E38A (Escherichia coli, UniProt P23909 1-853, E38A)
T1 sequence: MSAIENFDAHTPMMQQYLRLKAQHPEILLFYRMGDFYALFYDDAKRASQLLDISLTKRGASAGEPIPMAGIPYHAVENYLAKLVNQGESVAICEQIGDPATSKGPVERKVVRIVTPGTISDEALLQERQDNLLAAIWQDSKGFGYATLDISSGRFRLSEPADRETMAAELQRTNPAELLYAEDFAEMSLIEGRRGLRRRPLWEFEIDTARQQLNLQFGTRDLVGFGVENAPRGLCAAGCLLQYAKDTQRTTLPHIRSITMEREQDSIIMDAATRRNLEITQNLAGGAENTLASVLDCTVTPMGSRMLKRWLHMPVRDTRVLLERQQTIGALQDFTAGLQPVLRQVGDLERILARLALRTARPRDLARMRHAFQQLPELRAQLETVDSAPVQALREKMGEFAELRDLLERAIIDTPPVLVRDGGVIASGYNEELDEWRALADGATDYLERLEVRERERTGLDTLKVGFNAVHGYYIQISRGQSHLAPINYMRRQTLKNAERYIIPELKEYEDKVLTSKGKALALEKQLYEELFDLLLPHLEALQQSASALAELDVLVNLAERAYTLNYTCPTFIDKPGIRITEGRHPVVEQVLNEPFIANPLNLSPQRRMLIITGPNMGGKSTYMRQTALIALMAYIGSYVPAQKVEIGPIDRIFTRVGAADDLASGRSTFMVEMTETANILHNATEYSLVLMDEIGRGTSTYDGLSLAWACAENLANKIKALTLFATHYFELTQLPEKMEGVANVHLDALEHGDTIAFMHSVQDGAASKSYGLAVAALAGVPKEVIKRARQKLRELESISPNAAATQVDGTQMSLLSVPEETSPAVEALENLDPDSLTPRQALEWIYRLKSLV

MutS wild-type [1] = target: T2, MutS wild-type (Escherichia coli, UniProt P23909 1-853)
T2 sequence: T1 sequence with A38E

MutS wild-type [2] = target: T2, MutS wild-type; remark: listed apart in the source

B1: CP-GpG/CT cisplatinated mismatch 30mer (dsDNA)
DNA 1: ACCTGTCTGGCAACACTGTCACCGTCGTAT
DNA 2: ATACGACGGTGACAGTGTTGCTAGACAGGT
modifications: cisplatin 1,2-GpG intrastrand cross-link at G9-G10 of strand 1
Work on B1 yielded a Kd (MutS-E38A) of 200 ± 69 nM and a Kd (MutS wild-type [1]) of 360 ± 46 nM.

B2: G/T mismatch heteroduplex 30mer (dsDNA)
DNA 1: B1 DNA 1
DNA 2: B1 DNA 2
With B2 the Kd (MutS-E38A) was 160 ± 58 nM and the Kd (MutS wild-type [1]) was 100 ± 8 nM.

B3: G/C homoduplex 30mer (dsDNA)
DNA 1: B1 DNA 1
DNA 2: B1 DNA 2 with T22C
With B3 the Kd (MutS wild-type [2]) was 1080 ± 720 nM and the Kd (MutS-E38A) was 610 ± 58 nM.

B4: CP-GpG/CC cisplatinated homoduplex 30mer (dsDNA)
DNA 1: B1 DNA 1
DNA 2: B1 DNA 2 with T22C
modifications: cisplatin 1,2-GpG intrastrand cross-link at G9-G10 of strand 1
Work on B4 yielded a Kd (MutS wild-type [2]) of 1340 ± 580 nM, a Kd (MutS-E38A) of 600 ± 78 nM and a Kd (MutS wild-type [1]) of 1300 ± 65 nM.
